According to US20260265381A1 (Hoffmann-La Roche, published 2026):

How the values were obtained:
[1] = target: T1, human CD3 expressed on cells (Jurkat NFAT reporter cells; human T cells isolated from PBMCs) (human, UniProt P07766 23-207); experiment: flow cytometry on Jurkat NFAT cells; IgG1 PGLALA format; detection with PE anti-human IgG Fc F(ab')2
T1 construct: on cells it is part of the CD3/TCR complex; also called CD3 on Jurkat cells; CD3 expressed on T-cells

[2] = target: T2, recombinant single-chain HLA-G monomer/human HLA-G β2M MHC class I complex (human); experiment: SPR single cycle kinetics (Biacore T200, 25 C); antibody captured via Fc on CM3 chip, HLA-G complex as analyte
T2 construct: also called wt-HLA-G complex; wt-HLA-G antigen

[3] = target: T3, human HLA-G expressed on cells (JEG3 cells, natural; SKOV3 cells transfected with recombinant HLA-G) (human, UniProt P17693 25-338); experiment: flow cytometry on JEG3 cells (natural HLA-G); antibody at 2 µg/ml per legend paragraph 51 (10 µg/ml per paragraph 491); detection with goat anti-human IgG (H+L) Alexa 488
T3 construct: also called SKOV3 HLA-G

[4] = target: T2, recombinant single-chain HLA-G …; experiment: SPR multi cycle kinetics (Biacore T200, 25 C); antibody captured via Fc on CM3 chip, HLA-G complex as analyte
[5] = target: T2, recombinant single-chain HLA-G …; experiment: SPR relative active concentration; after 13 days His pH 6.0 at 40 C
[6] = target: T2, recombinant single-chain HLA-G …; experiment: SPR relative active concentration; Ref. (frozen at -80 C)
[7] = target: T3, human HLA-G expressed on cells (JEG3 …); experiment: flow cytometry; JEG3 cells pre-incubated with antibody, competitor ILT2-c-Myc-Fc at 10 ug/ml
[8] = target: T4, human HLA-G β2M MHC class I complex, wherein the HLA-G specific amino acids have been replaced by HLA-A … (human); experiment: SPR (Biacore T200, 25 C); antibody immobilized on CM3 chip, single-chain peptide-MHC as analyte
T4 construct: Recombinant single-chain peptide-MHC complex construct; also called HLA-A consensus on HLA-G frame; degrafted HLA-G

[9] = target: T5, rat RT1 (SEQ ID NO: 43) (rat); experiment: as above
T5 construct: Recombinant single-chain peptide-MHC complex construct (peptide, β2M, MHC class I molecule); also called rat RT1A β2M MHC class I complex
T5 chain: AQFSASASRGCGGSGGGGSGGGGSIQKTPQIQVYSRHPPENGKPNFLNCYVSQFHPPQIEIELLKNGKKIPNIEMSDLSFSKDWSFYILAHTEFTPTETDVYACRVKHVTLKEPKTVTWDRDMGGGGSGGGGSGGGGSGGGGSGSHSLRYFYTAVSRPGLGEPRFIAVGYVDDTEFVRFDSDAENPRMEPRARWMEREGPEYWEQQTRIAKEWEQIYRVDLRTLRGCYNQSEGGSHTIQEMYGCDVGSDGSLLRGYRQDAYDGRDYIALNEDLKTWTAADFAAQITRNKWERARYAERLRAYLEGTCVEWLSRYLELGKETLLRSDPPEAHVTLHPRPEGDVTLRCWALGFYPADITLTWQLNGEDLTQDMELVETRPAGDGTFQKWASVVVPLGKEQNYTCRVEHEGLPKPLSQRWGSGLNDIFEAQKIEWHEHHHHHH

[10] = target: T2, recombinant single-chain HLA-G …; experiment: SPR relative active concentration; after 13 days PBS pH 7.4 at 37 C
[11] = target: T3, human HLA-G expressed on cells (JEG3 …); experiment: flow cytometry on SKOV3 HLA-G cells (SKOV3 transfected with HLA-G); antibody at 2 µg/ml per legend paragraph 51 (10 µg/ml per paragraph 491); detection with goat anti-human IgG (H+L) Alexa 488
[12] = target: T2, recombinant single-chain HLA-G …; experiment: SPR multi cycle kinetics

T1 sequence (P07766 23-207 limits assumed): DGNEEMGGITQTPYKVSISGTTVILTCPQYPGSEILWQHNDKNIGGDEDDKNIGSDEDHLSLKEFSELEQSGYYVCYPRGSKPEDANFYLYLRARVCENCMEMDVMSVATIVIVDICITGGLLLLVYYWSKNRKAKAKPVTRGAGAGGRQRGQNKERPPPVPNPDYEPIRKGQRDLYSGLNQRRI

B1: P035-093 (P035) human IgG1 PGLALA (antibody, V domains shown)
VH: EVQLLESGGGLVQPGGSLRLSCAASGFTFSSYAMNWVRQAPGKGLEWVSRIRSKYNNYATYYADSVKGRFTISRDDSKNTLYLQMNSLRAEDTAVYYCVRASNFPASYVSYFAYWGQGTLVTVSS
VL: QAVVTQEPSLTVSPGGTVTLTCGSSTGAVTTSNYANWVQEKPGQAFRGLIGGTNKRAPGTPARFSGSLLGGKAALTLSGAQPEDEAEYYCALWYSNLWVFGGGTKLTVLR
- EC50 (read off the curve) [1]: ~0.5 nM

B2: CD3orig human IgG1 PGLALA (antibody, V domains shown)
VH: not shown
VL: B1 VL
notes: Human IgG1 format with P329G L234A L235A mutations in the Fc region
- EC50 (read off the curve) [1]: ~0.8 nM

B3: HLA-G-0090 (antibody, IgG1, V domains shown)
VH: QVQLQQSGPGLLKPSQTLSLTCAISGDSVSSNRAAWNWIRQSPSRGLEWLGRTYYRSKWYNDYAVSVQGRITLIPDTSKNQFSLRLNSVTPEDTAVYYCASVRAVAPFDYWGQGVLVTVSS
VL: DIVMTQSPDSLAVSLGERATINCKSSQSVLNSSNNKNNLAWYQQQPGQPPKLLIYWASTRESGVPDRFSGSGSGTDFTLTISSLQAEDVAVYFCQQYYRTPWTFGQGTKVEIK
modifications: N-glycosylation motif NSS in CDR-L1 at light chain positions 31 to 33 (Fab glycosylation detected)
notes: the parental antibody was expressed alongside them; also called parental antibody
- Kd [2]: 1.2 nM
- koff [2]: 0.00138 s⁻¹
- kon [2]: 1.19e+06 M⁻¹ s⁻¹
- t½ [2]: 8.35 min
- MFI [3]: 6060
- Kd [4]: 1.4 nM
- koff [4]: 0.00178 s⁻¹
- kon [4]: 1.3e+06 M⁻¹ s⁻¹
- t½ [4]: 6.5 min
- relative HLA-G binding signal compared to Ref (as 100%), by SPR RAC [5]: 99%
- relative HLA-G binding signal compared to Ref (as 100%), by SPR RAC [6]: 100%
- inhibition of ILT2 binding to Jeg3 cells [7]: 72%
- binding result [8]: no binding
- binding result [9]: no binding
- relative HLA-G binding signal compared to Ref (as 100%), by SPR RAC [10]: 96%
- MFI [11]: 13100

B4: HLA-G-0090-VL-S33A (antibody, IgG1, V domains shown)
VH: B3 VH
VL: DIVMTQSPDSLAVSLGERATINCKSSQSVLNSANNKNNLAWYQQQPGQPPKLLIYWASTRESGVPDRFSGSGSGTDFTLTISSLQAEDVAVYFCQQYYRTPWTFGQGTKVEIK
notes: also called HLA-G-0090-S33A
- Kd [2]: 1 nM
- koff [2]: 0.00124 s⁻¹
- kon [2]: 1.24e+06 M⁻¹ s⁻¹
- t½ [2]: 9.3 min
- MFI [3]: 6380
- Kd [4]: 1.2 nM
- koff [4]: 0.00149 s⁻¹
- kon [4]: 1.24e+06 M⁻¹ s⁻¹
- t½ [4]: 7.76 min
- relative HLA-G binding signal compared to Ref (as 100%), by SPR RAC [5]: 99%
- relative HLA-G binding signal compared to Ref (as 100%), by SPR RAC [6]: 100%
- inhibition of ILT2 binding to Jeg3 cells [7]: 72%
- binding result [8]: no binding
- binding result [9]: no binding
- relative HLA-G binding signal compared to Ref (as 100%), by SPR RAC [10]: 96%
- MFI [11]: 14300

B5: HLA-G-0090-VL-S33P (antibody, IgG1, V domains shown)
VH: B3 VH
VL: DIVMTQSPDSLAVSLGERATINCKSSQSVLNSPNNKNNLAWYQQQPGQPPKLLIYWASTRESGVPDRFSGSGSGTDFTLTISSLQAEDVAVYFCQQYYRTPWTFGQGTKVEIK
notes: also called HLA-G-0090-S33P
- Kd [2]: 1.8 nM
- koff [2]: 0.00236 s⁻¹
- kon [2]: 1.34e+06 M⁻¹ s⁻¹
- t½ [2]: 4.91 min
- factor of loss of binding affinity compared to HLA-G-0090 [12]: 2 fold
- Kd [4]: 2.7 nM
- koff [4]: 0.00368 s⁻¹
- kon [4]: 1.36e+06 M⁻¹ s⁻¹
- t½ [4]: 3.13 min

B6: HLA-G-0090-VL-S32P (antibody, IgG1, V domains shown)
VH: B3 VH
VL: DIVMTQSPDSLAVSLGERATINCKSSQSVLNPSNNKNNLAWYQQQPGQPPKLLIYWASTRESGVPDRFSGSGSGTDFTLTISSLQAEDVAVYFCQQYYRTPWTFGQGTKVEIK
notes: also called HLA-G-0090-S32P
- Kd [2]: 1 nM
- koff [2]: 0.00124 s⁻¹
- kon [2]: 1.19e+06 M⁻¹ s⁻¹
- t½ [2]: 9.29 min
- MFI [3]: 6330
- Kd [4]: 1.2 nM
- koff [4]: 0.00157 s⁻¹
- kon [4]: 1.27e+06 M⁻¹ s⁻¹
- t½ [4]: 7.34 min
- relative HLA-G binding signal compared to Ref (as 100%), by SPR RAC [5]: 99%
- relative HLA-G binding signal compared to Ref (as 100%), by SPR RAC [6]: 100%
- inhibition of ILT2 binding to Jeg3 cells [7]: 72%
- binding result [8]: no binding
- binding result [9]: no binding
- relative HLA-G binding signal compared to Ref (as 100%), by SPR RAC [10]: 98%
- MFI [11]: 13900

B7: HLA-G-0090-VL-S33D (antibody, IgG1, V domains shown)
VH: B3 VH
VL: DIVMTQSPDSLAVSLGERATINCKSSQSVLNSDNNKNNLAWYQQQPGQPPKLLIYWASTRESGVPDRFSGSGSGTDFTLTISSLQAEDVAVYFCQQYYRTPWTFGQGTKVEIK
notes: also called HLA-G-0090-S33D
- Kd [2]: 4.8 nM
- koff [2]: 0.00344 s⁻¹
- kon [2]: 717000 M⁻¹ s⁻¹
- t½ [2]: 3.36 min
- factor of loss of binding affinity compared to HLA-G-0090 [12]: 5 fold
- Kd [4]: 7.4 nM
- koff [4]: 0.00667 s⁻¹
- kon [4]: 897000 M⁻¹ s⁻¹
- t½ [4]: 1.73 min
